From US12618050B2, “Engineered polypeptides that exhibit increased catalytic efficiency for unnatural cofactors and uses thereof” (The Regents of the University of California, priority 2018, dated 2026)
Entries after “also recorded” stand apart in the source; their conditions may differ.

Assays:
[1] = XenA activity with different cofactors; assay type: biochemical; settings: ketoisophorone as substrate
Procedure: Enzyme assay conditions: The enzymatic buffer contained 200 mM phosphate buffer (pH 7.5), 5 mM ketoisophorone, and 0.2 mM NADPH, NADH, or NMNH, and appropriate amount of purified XenA protein. The initial reaction rate was quantified by absorbance variation at 340 nm using a spectrophotometer at 37° C. Reactions with no ketoisophorone added were performed to quantify the non-specific reaction rate. The net reaction rate as shown in FIG. 13 was calculated by subtracting the non-specific reaction rate from the total reaction rate. For generating NMNH, a microcentrifuge tube (2 mL) containing 35 mM Tris-HCl (pH 8.0), 4 mM NMN^+, 1 M NaCl and 140 mM glucose, was incubated for ˜3 hr at 30° C. with purified Bs GDH I195R. An aliquot of this reaction system was taken to measure the accumulation of NMNH by reading absorbance at 340 nm. The proteins in the reaction were removed by filtering the mixture with centrifugal filter units (Amicon Ultra-0.5 Centrifugal Filter Units, Millipore, USA). The solvent was evaporated, and the residue was collected to give NMNH as a yellowish oil.

[2] = GDH enzymatic assay with NAD^+ as cofactor; assay type: biochemical
Procedure: (§1) GDH enzymatic assays. The GDH activity was measured as described in Hilt et al. (Biochimica et biophysica acta 1076(2):298-304 (1991)). The reactions were started by adding the purified protein to the assay mixture containing 35 mM Tris-HCl buffer (pH 8.0), 3 mM NAD^+, NADP^+ or NMN^+ and 140 mM glucose. The absorbance variation at 340 nm was detected by a spectrophotometer at 25° C.

E. coli strain MX103 = assay: E. coli growth with NMN^+-dependent glycolysis; assay type: cell-based, Escherichia coli
[3] = GDH enzymatic assay with NMN^+ as cofactor; assay type: biochemical
Procedure: as §1

E. coli whole cells = assay: NMN^+-dependent whole-cell biotransformation of KIP; assay type: cell-based, Escherichia coli
Procedure: NMN^+-dependent whole-cell biotransformation. One biotransformation plasmid expressing XenA, LVR, or ADH with a GDH (selected from pLZ217-pLZ225) and pSM104 containing the glucose transport facilitator were transformed into strain MX102 by electroporation. 4 mL seed cultures of 2×YT media with appropriate antibiotics, 0.1 mM IPTG, and 0.2% (wt/v) glucose were cultured at 30° C. while shaking at 250 rpm for 16 hours. 0.5% (v/v) seed cultures were used to inoculate 150 mL of 2×YT media with appropriate antibiotics, A5 trace metals with cobalt, and 0.5 mM IPTG in a 250 mL baffled shake flask and cultured at 30° C. at 250 rpm. When an OD600˜0.4 was reached, protein expression was induced with 0.1% (w/v) arabinose and cultured for an additional 8 hours at 30° C. while shaking at 250 rpm. Cells were harvested by centrifugation for 15 minutes at 20° C. at 3750 rpm. The supernatant was discarded. Nutrients from the media were removed by washing the pelleted cells 3 times with 50 mL of 100 mM potassium phosphate at pH 7.5. Cells were resuspended to an OD600 of 100 in assay buffer consisting of 100 mM potassium phosphate buffer at pH 7.5, 200 mM D-glucose, 0.5% arabinose, and 0.5 mM IPTG. 1 mL of resuspended cells were added to 20 mL of identical assay buffer in a 250 mL unbaffled, screw-cap shake flask. KIP was spiked into the flask to 5 g/L to initiate the reaction. Flask caps were secured tightly to prevent evaporative loss of substrate or products. Flasks were incubated at 30° C. while shaking at 250 rpm for 48 hours. After 48 hours, 1 mL of culture was pelleted, and the supernatant was used for analysis. 200 μL of supernatant was extracted with an equal volume of ethyl acetate containing 200 mg/L octanol as an internal standard, and the samples were analyzed by gas chromatography. For samples expressing all three conversion enzymes (XenA, LVR, and ADH) on the same vector (pLZ226), the Bs GDH was expressed individually on a separate vector (pSM106, pSM107, or pSM108). The Zm glf gene was also expressed in the system (pSM110).

[4] = GDH enzymatic assay with NADP^+ as cofactor; assay type: biochemical
Procedure: as §1

B1: XenA: enoate reductase XenA from Pseudomonas putida, wild type (protein, listed as Pseudomonas putida)
chain: MSALFEPYTLKDVTLRNRIAIPPMCQYMAEDGLINDWHQVHYASMARGGAGLLVVEATAVAPEGRITPGCAGIWSDAHAQAFVPVVQAIKAAGSVPGIQIAHAGRKASANRPWEGDDHIGADDARGWETIAPSAIAFGAHLPNVPRAMTLDDIARVKQDFVDAARRARDAGFEWIELHFAHGYLGQSFFSEHSNKRTDAYGGSFDNRSRFLLETLAAVREVWPENLPLTARFGVLEYDGRDEQTLEESIELARRFKAGGLDLLSVSVGFTIPETNIPWGPAFMGPIAERVRREAKLPVTSAWGFGTPQLAEAALQANQLDLVSVGRAHLADPHWAYFAAKELGVEKASWTLPAPYAHWLERYR
[1]
  activity with NMNH as reducing cofactor: comparable activity to the natural cofactors NADH and NADPH; also recorded: comparable activity to the natural cofactors NADPH and NADH

B2: I195R-A93K-Y39Q-S17E: Bs GDH with I195R, A93K, Y39Q, S17E substitutions (SEQ ID NO:7) (protein)
chain: MYPDLKGKVVAITGAAEGLGKAMAIRFGKEQAKVVINYQSNKQDPNEVKEEVIKAGGEAVVVQGDVTKEEDVKNIVQTAIKEFGTLDIMINNKGLENPVPSHEMPLKDWDKVIGTNLTGAFLGSREAIKYFVENDIKGNVINMSSVHEVIPWPLFVHYAASKGGIKLMTETLALEYAPKGIRVNNIGPGAINTPRNAEKFADPKQKADVESMIPMGYIGEPEEIAAVAAWLASKEASYVTGITLFADGGMTQYPSFQAGRG
modifications: I195R A93K Y39Q S17E mutant GDH coding sequence
[2]; cofactor NAD^+
  Kcat: 0.025 ± 0.002 s⁻¹
  Km: 6.5 mM
[2]; compared with GDH Triple
  drop of catalytic efficiency for NAD^+ upon introducing S17E: 220 fold
E. coli strain MX103; minimal glucose medium, GDH without XenA
  cell growth on glucose: did not grow
E. coli strain MX103; minimal medium, glucose sole carbon source, GDH with XenA, listed as GDH Ortho
  cell growth on glucose: able to grow; also recorded: supported E. coli growth on glucose
[3]
  change of NMN^+-dependent catalytic efficiency compared with GDH Triple: modest reduction
[3]; cofactor NMN^+
  Kcat: 1.21 ± 0.09 s⁻¹
  Km: 5.9 ± 1 mM
[3]; compared to wild type
  overall specificity switch towards NMN^+ from NADP^+: ~1×10^7 fold
  overall specificity switch towards NMN^+ from NAD^+: ~2×10^7 fold
E. coli whole cells; XenA, LVR and ADH over-expressed simultaneously
  levodione fraction of total products by mass: ~92%
E. coli whole cells; resting cells with LVR or ADH
  LVR- and ADH-catalyzed formation of phorenol or HIP: minimal levels of phorenol or HIP
E. coli whole cells; resting cells with XenA, 5 g/L KIP, glucose co-substrate
  levodione produced: ~1 g/L
[4]; cofactor NADP^+
  Kcat: 0.022 ± 0.013 s⁻¹
  Km: 2 mM
[4]; compared with GDH Triple
  drop of catalytic efficiency for NADP^+ upon introducing S17E: 890 fold
